One protein from paper PMC9040739, “Entamoeba histolytica EHD1 Is Involved in Mitosome-Endosome Contact” (mBio, 2022) can be followed below.

Substrate in this series: Nc1ncnc2c1ncn2[C@@H]1O[C@H](COP(=O)(O)OP(=O)(O)OP(=O)(O)O)[C@@H](O)[C@H]1O
The series can be described thus: coupled fluorescent ADP assay (ADP-hexokinase/G6PDH/diaphorase/resazurin). In kind it is biochemical, Entamoeba histolytica. To be noted: MgCl2, pH 7.5, 37°C, 12.5-2,500 μM ATP.

B1: His-EHD1 (Entamoeba histolytica HM-1:IMSS) (protein)
chain: MFGKKKQKPQMDTSYVSVIDGVKKIYDEKIKKLEADYKYDYLVSPLMRQADFEAKPMVLFLGQYSTGKTTFINYLLNYDYPGSHIGPEPTTDGFMAIMHGPNSTNIPGNTLCVQSDKPFTSLSKFGNEFMAKFNGSFCNLPLLEHLTFIDSPGVLSGEKQRIGRSYDFNEVVRWFAERADMIVLVFDAHKLDISDEFKGVIEAVKKHSEKMRLVLNKADSIDSQQLMRVYGALMWSLGKVMQTPECLRVYVSSFWDQPFKESLFTGLFEKERDDLMYDLHALPKQATVRKVNELCKRARLAKANAYITSYLREQMPTFGKDKKKAELLKDLNTVFNTVMKRYNLAAGDFPPIDVYKDRLQNCDFSKFPKLDMRVINAVDDALGTQIPLLLKKFPMEDDLSTHTNPFEVASNFEKCCITLDVSEDEMNSYQKEFDKLPKNEVGKVLGKDCFAPLMASGADKKDLQKIWSIADSGKEGALNAHQYILAKALVRTLLQSGGYPDNLPPVE
notes: full length (ORF primers start to stop), N-terminal His tag (pColdI), tag kept; E. coli BL21, Ni-NTA; native mass 58 kDa
Regarding B1, the Km (as a rule, the concentration of substrate that gives half-maximal velocity) amounted to 94.91 ± 16.63 µM.
